In patent US20020086390:

Legend:
[1] = target: GST-Cdc42Hs preloaded with GDP, P60953
[2] = target: GST-Cdc42Hs preloaded with GTPγS, P60953
[3] = target: GST-Rac1 preloaded with GTPγS, P63000
[4] = target: GST-RhoA preloaded with GTPγS, P61586
Chain of GST-RhoA preloaded with GTPγS, P61586 (P61586 whole entry): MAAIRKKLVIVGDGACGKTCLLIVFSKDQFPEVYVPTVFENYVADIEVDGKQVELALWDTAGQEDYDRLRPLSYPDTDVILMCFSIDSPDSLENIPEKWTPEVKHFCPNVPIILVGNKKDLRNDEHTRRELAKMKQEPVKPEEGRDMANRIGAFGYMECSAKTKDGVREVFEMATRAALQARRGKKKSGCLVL

Chain of GST-Cdc42Hs preloaded with GTPγS, P60953 (P60953 whole entry, looked up): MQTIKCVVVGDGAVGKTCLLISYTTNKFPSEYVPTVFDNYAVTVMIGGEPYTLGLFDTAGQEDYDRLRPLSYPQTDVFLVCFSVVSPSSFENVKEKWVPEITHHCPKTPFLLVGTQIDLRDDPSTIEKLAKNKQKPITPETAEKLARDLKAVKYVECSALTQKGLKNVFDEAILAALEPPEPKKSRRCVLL
Chain of GST-Cdc42Hs preloaded with GDP, P60953 (P60953 whole entry, looked up): as above

B1: inactive PAK I holoenzyme (p60) purified from rabbit reticulocytes (protein)
chain: SDNGELEDKPPAPPVRMSSTIFSTGGKDPLSANHSLKPLPSVPEEKKPRNKIISIFSGTEKGSKKKEKERPEISPPSDFEHTIHVGFDAVTGEFTGMPEQWARLLQTSNITKLEQKKNPQAVLDVLKFYDSNTVKQKYLSFTPPEKDGFPSGAPALNTKVSETSAVVTEEDDDDEEAAPPVIAPRPDHTKSIYTRSVIDPIPAPVGDSHVDSGAKSSDKQKKKTKMTDEEIMEKLRTIVSIGDPKKKYTRYEKIGQGASGTVFTATDVALGQEVAIKQINLQKQPKKELIINEILVMKELKNPNIVNFLDSYLVGDELFVVMEYLAGGSLTDVVTETCMDEAQIAAVCRECLQALEFLHANQVIHRDIKSDNVLLGMEGSVKLTDFGFCAQITPEQSKRSTMVGTPYWMAPEVVTRKAYGPKVDIWSLGIMAIEMVEGEPPYLNENPLRALYLIATNGTPELQNPEKLSPIFRDFLNRCLEMDVEKRGSAKELLQHPFLKLAKPLSSLTPLIMAAKEAMKSNR
B1 was tested, and the “activity (phosphorylation of H4)” value [1] was 2,154 pmol/min/mg, the “autophosphorylation and H4 activity relative to Cdc42Hs(GTPγS)” value [1] was “approximately 8-fold lower than those observed with Cdc42Hs(GTPγS)” and the stimulation of autophosphorylation [1] was 0.12 mol/mol. For the same protein, the “autophosphorylation of PAK I (autoradiography, time course)” value [2] was “Stimulation of autophosphorylation upon addition of GST-Cdc42Hs was observed within 5 min”, the “increased autophosphorylation of PAK I” value [2] was 0.97 mol/mol and the “stimulation of the rate of phosphorylation of H4” value [2] was 18,261 pmol/min/mg. For the same protein, the “autophosphorylation of PAK I (autoradiography, time course)” value [3] was “a slight stimulation of autophosphorylation over the basal level was observed over a 15-min period of incubation”, the “autophosphorylation and activity (phosphorylation of H4)” value [4] was “had no stimulatory effect on either autophosphorylation or activity” and the “autophosphorylation of PAK I (autoradiography, time course)” value [4] was “GST-RhoA had little effect”.
